The results in this text go back to IntAct's records for PubMed 25751138.

To fix the notation:
B1: DASH complex subunit DAM1 (Saccharomyces cerevisiae), P53267 (parent)
chain: MSEDKAKLGTTRSATEYRLSIGSAPTSRRSSMGESSSLMKFADQEGLTSSVGEYNENTIQQLLLPKIRELSDSIITLDSNFTRLNFIHESLADLNESLGSLLYGIMSNSWCVEFSQAPHDIQDDLIAIKQLKSLEDEKNNLVMELSNMERGIKRKKDEQGENDLAKASQNKQFNQPLFPSSQVRKYRSYDNRDKRKPSKIGNNLQVENEEDYEDDTSSEASFVLNPTNIGMSKSSQGHVTKTTRLNNNTNSKLRRKSILHTIRNSIASGADLPIENDNVVNLGDLHPNNRISLGSGAARVVNGPVTKNRNSMFSGRAERKPTESRHSVAKKTEKKINTRPPFR
B2: DASH complex subunit DAM1 (Saccharomyces cerevisiae), P53267 (parent)
chain: B1 chain
partner: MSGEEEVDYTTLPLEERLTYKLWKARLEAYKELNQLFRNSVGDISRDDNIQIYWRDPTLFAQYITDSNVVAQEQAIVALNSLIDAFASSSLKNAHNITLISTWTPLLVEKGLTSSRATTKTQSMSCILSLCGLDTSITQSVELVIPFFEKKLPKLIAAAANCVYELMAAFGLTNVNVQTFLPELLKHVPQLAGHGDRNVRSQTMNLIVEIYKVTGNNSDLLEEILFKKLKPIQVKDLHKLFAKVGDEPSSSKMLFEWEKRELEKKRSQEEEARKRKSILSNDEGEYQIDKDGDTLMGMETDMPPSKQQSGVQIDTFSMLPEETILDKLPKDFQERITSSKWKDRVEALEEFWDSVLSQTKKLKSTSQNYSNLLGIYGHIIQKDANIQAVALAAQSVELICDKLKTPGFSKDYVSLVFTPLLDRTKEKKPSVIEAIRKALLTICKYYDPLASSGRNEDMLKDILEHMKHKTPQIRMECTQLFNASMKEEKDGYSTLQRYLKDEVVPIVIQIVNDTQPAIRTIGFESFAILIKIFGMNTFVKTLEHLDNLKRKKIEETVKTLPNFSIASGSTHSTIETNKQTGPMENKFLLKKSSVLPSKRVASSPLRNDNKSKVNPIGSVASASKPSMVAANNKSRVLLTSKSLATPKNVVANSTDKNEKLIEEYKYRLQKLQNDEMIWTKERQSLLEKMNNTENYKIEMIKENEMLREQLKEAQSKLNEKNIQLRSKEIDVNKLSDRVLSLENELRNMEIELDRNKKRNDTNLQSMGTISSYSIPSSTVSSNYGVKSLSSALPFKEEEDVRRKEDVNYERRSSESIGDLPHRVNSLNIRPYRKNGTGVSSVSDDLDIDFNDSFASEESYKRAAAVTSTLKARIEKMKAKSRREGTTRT

In the first assay the parent is B1. Conditions: with ndc80_yeast NDC80, P40460.
ndc80_yeast NDC80, P40460, sequence (P40460 whole entry): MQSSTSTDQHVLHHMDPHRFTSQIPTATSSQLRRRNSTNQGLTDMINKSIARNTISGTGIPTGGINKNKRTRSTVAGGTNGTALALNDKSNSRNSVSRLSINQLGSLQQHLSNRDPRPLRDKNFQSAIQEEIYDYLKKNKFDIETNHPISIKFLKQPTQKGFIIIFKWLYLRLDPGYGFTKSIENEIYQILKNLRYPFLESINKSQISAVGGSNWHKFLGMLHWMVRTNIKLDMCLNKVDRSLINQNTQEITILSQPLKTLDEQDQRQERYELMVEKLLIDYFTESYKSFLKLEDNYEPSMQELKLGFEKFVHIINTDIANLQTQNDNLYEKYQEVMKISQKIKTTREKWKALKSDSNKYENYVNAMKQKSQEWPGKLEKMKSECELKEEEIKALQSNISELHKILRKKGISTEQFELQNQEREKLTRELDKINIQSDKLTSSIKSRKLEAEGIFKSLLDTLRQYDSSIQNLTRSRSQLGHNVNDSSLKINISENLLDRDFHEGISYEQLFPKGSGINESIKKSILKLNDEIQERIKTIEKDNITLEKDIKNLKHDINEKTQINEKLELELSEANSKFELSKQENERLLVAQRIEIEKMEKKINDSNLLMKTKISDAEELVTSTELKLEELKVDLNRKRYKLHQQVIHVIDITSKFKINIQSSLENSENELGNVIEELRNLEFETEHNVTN
With MSEDKAKLGTTRSATEYRLSIGSAPTSRRSSMGESSSLMKFADQEGLTSSVGEYNENTIQQLLLPKIRELSDSIITLDSNFTRLNFIHESLADLNESLGSLLYGIMSNSWCVEFSQAPHDIQDDLIAIKQLKSLEDEKNNLVMELSNMERGIKRKKDEQGENDLAKASQNKQFNQPLFPSSQVRKYRSYDNRDKRKPSKIGNNLQVENEEDYEDDTSSEASFVLNPTNIGMSKSSQGHVTKTTRLNNNTNSKLRRKDILHTIRNDIASGADLPIENDNVVNLGDLHPNNRIDLGSGAARVVNGPVTKNRNSMFSGRAERKPTESRHDVAKKTEKKINTRPPFR [S257D;S265D;S292D;S327D], the “effect of a mutation on the interaction” value was “decreasing interaction strength”.

In another assay the parent is B2. The conditions noted are these: with stu2_yeast STU2, P46675.
With MSEDKAKLGTTRSATEYRLSIGSAPTSRRSSMGESSSLMKFADQEGLTSSVGEYNENTIQQLLLPKIRELSDSIITLDSNFTRLNFIHESLADLNESLGSLLYGIMSNSWCVEFSQAPHDIQDDLIAIKQLKSLEDEKNNLVMELSNMERGIKRKKDEQGENDLAKASQNKQFNQPLFPSSQVRKYRSYDNRDKRKPSKIGNNLQVENEEDYEDDTSSEASFVLNPTNIGMSKSSQGHVTKTTRLNNNTNSKLRRKDILHTIRNDIASGADLPIENDNVVNLGDLHPNNRIDLGSGAARVVNGPVTKNRNSMFSGRAERKPTESRHDVAKKTEKKINTRPPFR [S257D;S265D;S292D;S327D], the “effect of a mutation on the interaction” value is “disrupting interaction strength”.
